Data reported in the Human Domainome abundance scans (Beltran et al. 2025).
± gives the uncertainty stated by the source.

B1: 3'-5' exoribonuclease 1, residues 65 to 114; numbered along this chain, Q8IV48 (parent)
chain: VYKEIAITNGCINRMSKEELRAKLSEFKLETRGVKDVLKKRLKNYYKKQK

Variants of: B1
Assay: abundance fitness (aPCA) (normalised: wild type 0, dead -1); higher = more abundant; growth selection in yeast, the domain comes from the species named
Conditions: Homo sapiens

Q: For VYKEIAITNGCINRMSKEELRAKLSEFKMETRGVKDVLKKRLKNYYKKQK [L29M], which abundance fitness is on record?
A: The abundance fitness was -0.198 ± 0.051.

Q: With VYKEIAITNGCINRMSKEELRAKLSEFKEETRGVKDVLKKRLKNYYKKQK [L29E] as the variant, how does the abundance fitness read?
A: Its abundance fitness is -0.737 ± 0.068.

Q: With VYKEIAITNGCINRMSKEELRAKLSEFKKETRGVKDVLKKRLKNYYKKQK [L29K] as the variant, how does the abundance fitness read?
A: The abundance fitness was -0.666 ± 0.054.

Q: For VYKEIAITNGCINRMSKEELRAKLSEFKGETRGVKDVLKKRLKNYYKKQK [L29G], which abundance fitness is on record?
A: Its abundance fitness is -0.875 ± 0.051.

Q: For VYKEIAITNGCINRMSKEELRAKLSEFKTETRGVKDVLKKRLKNYYKKQK [L29T], which abundance fitness is on record?
A: The abundance fitness was -0.884 ± 0.048.

Q: With VYKEIAITNGCINRMSKEELRAKLSEFKFETRGVKDVLKKRLKNYYKKQK [L29F] as the variant, how does the abundance fitness read?
A: Its abundance fitness is -0.688 ± 0.04.

Q: For VYKEIAITNGCINRMSKEELRAKLSEFKYETRGVKDVLKKRLKNYYKKQK [L29Y], which abundance fitness is on record?
A: The abundance fitness was -0.874 ± 0.047.

Q: With VYKEIAITNGCINRMSKEELRAKLSEFKNETRGVKDVLKKRLKNYYKKQK [L29N] as the variant, how does the abundance fitness read?
A: Its abundance fitness is -0.827 ± 0.052.

Q: With VYKEIAITNGCINRMSKEELRAKLSEFKWETRGVKDVLKKRLKNYYKKQK [L29W] as the variant, how does the abundance fitness read?
A: The abundance fitness was -0.694 ± 0.056.

Q: Which abundance fitness does the source give for VYKEIAITNGCINRMSKEELRAKLSEFKCETRGVKDVLKKRLKNYYKKQK [L29C] here?
A: The abundance fitness was -0.256 ± 0.041.

Q: With VYKEIAITNGCINRMSKEELRAKLSEFKPETRGVKDVLKKRLKNYYKKQK [L29P] as the variant, how does the abundance fitness read?
A: The abundance fitness was -0.999 ± 0.049.

Q: Which abundance fitness does the source give for VYKEIAITNGCINRMSKEELRAKLSEFKIETRGVKDVLKKRLKNYYKKQK [L29I] here?
A: The abundance fitness was -0.349 ± 0.041.

Q: Which abundance fitness does the source give for VYKEIAITNGCINRMSKEELRAKLSEFKDETRGVKDVLKKRLKNYYKKQK [L29D] here?
A: The abundance fitness was -0.878 ± 0.062.

Q: With VYKEIAITNGCINRMSKEELRAKLSEFKQETRGVKDVLKKRLKNYYKKQK [L29Q] as the variant, how does the abundance fitness read?
A: Its abundance fitness is -0.196 ± 0.05.

Q: For VYKEIAITNGCINRMSKEELRAKLSEFKHETRGVKDVLKKRLKNYYKKQK [L29H], which abundance fitness is on record?
A: The abundance fitness was -0.974 ± 0.051.

Q: For VYKEIAITNGCINRMSKEELRAKLSEFKVETRGVKDVLKKRLKNYYKKQK [L29V], which abundance fitness is on record?
A: Its abundance fitness is -0.561 ± 0.04.

Q: Which abundance fitness does the source give for VYKEIAITNGCINRMSKEELRAKLSEFKAETRGVKDVLKKRLKNYYKKQK [L29A] here?
A: The abundance fitness was -0.827 ± 0.044.

Q: For VYKEIAITNGCINRMSKEELRAKLSEFKLETRTVKDVLKKRLKNYYKKQK [G33T], which abundance fitness is on record?
A: Its abundance fitness is -1.06 ± 0.058.

Q: With VYKEIAITNGCINRMSKEELRAKLSEFKLETRHVKDVLKKRLKNYYKKQK [G33H] as the variant, how does the abundance fitness read?
A: The abundance fitness was -0.875 ± 0.057.

Q: With VYKEIAITNGCINRMSKEELRAKLSEFKLETRWVKDVLKKRLKNYYKKQK [G33W] as the variant, how does the abundance fitness read?
A: Its abundance fitness is -0.779 ± 0.11.

Q: Which abundance fitness does the source give for VYKEIAITNGCINRMSKEELRAKLSEFKLETRFVKDVLKKRLKNYYKKQK [G33F] here?
A: The abundance fitness was -0.977 ± 0.056.

Q: For VYKEIAITNGCINRMSKEELRAKLSEFKLETRAVKDVLKKRLKNYYKKQK [G33A], which abundance fitness is on record?
A: The abundance fitness was -0.842 ± 0.047.

Q: Which abundance fitness does the source give for VYKEIAITNGCINRMSKEELRAKLSEFKLETREVKDVLKKRLKNYYKKQK [G33E] here?
A: The abundance fitness was -0.791 ± 0.12.

Q: For VYKEIAITNGCINRMSKEELRAKLSEFKLETRRVKDVLKKRLKNYYKKQK [G33R], which abundance fitness is on record?
A: Its abundance fitness is -0.739 ± 0.053.

Q: Which abundance fitness does the source give for VYKEIAITNGCINRMSKEELRAKLSEFKLETRSVKDVLKKRLKNYYKKQK [G33S] here?
A: Its abundance fitness is -0.787 ± 0.038.

Q: Which abundance fitness does the source give for VYKEIAITNGCINRMSKEELRAKLSEFKLETRKVKDVLKKRLKNYYKKQK [G33K] here?
A: The abundance fitness was -0.93 ± 0.09.

Q: Which abundance fitness does the source give for VYKEIAITNGCINRMSKEELRAKLSEFKLETRNVKDVLKKRLKNYYKKQK [G33N] here?
A: Its abundance fitness is -0.991 ± 0.061.

Q: With VYKEIAITNGCINRMSKEELRAKLSEFKLETRCVKDVLKKRLKNYYKKQK [G33C] as the variant, how does the abundance fitness read?
A: Its abundance fitness is -0.608 ± 0.045.

Q: For VYKEIAITNGCINRMSKEELRAKLSEFKLETRYVKDVLKKRLKNYYKKQK [G33Y], which abundance fitness is on record?
A: The abundance fitness was -0.931 ± 0.053.

Q: With VYKEIAITNGCINRMSKEELRAKLSEFKLETRDVKDVLKKRLKNYYKKQK [G33D] as the variant, how does the abundance fitness read?
A: Its abundance fitness is -0.663 ± 0.046.

Q: For VYKEIAITNGCINRMSKEELRAKLSEFKLETRQVKDVLKKRLKNYYKKQK [G33Q], which abundance fitness is on record?
A: Its abundance fitness is -1.09 ± 0.089.

Q: Which abundance fitness does the source give for VYKEIAITNGCINRMSKEELRAKLSEFKLETRIVKDVLKKRLKNYYKKQK [G33I] here?
A: Its abundance fitness is -0.97 ± 0.053.

Q: With VYKEIAITNGCINRMSKEELRAKLSEFKLETRMVKDVLKKRLKNYYKKQK [G33M] as the variant, how does the abundance fitness read?
A: The abundance fitness was -0.988 ± 0.082.

Q: With VYKEIAITNGCINRMSKEELRAKLSEFWLETRGVKDVLKKRLKNYYKKQK [K28W] as the variant, how does the abundance fitness read?
A: The abundance fitness was -0.779 ± 0.059.

Q: With VYKEIAITNGCINRMSKEELRAKLSEFYLETRGVKDVLKKRLKNYYKKQK [K28Y] as the variant, how does the abundance fitness read?
A: The abundance fitness was -0.39 ± 0.065.

Q: With VYKEIAITNGCINRMSKEELRAKLSEFKLRTRGVKDVLKKRLKNYYKKQK [E30R] as the variant, how does the abundance fitness read?
A: Its abundance fitness is -0.685 ± 0.036.

Q: For VYKEIAITNGCINRMSKEELRAKLSEFKLMTRGVKDVLKKRLKNYYKKQK [E30M], which abundance fitness is on record?
A: The abundance fitness was -0.685 ± 0.061.

Q: For VYKEIAITNGCINRMSKEELRAKLSEFKLPTRGVKDVLKKRLKNYYKKQK [E30P], which abundance fitness is on record?
A: Its abundance fitness is -0.283 ± 0.035.

Q: For VYKEIAITNGCINRMSKEELRAKLSEFKLFTRGVKDVLKKRLKNYYKKQK [E30F], which abundance fitness is on record?
A: The abundance fitness was -0.501 ± 0.04.

Q: With VYKEIAITNGCINRMSKEELRAKLSEFKLTTRGVKDVLKKRLKNYYKKQK [E30T] as the variant, how does the abundance fitness read?
A: Its abundance fitness is -0.566 ± 0.038.

Q: For VYKEIAITNGCINRMSKEELRAKLSEFKLLTRGVKDVLKKRLKNYYKKQK [E30L], which abundance fitness is on record?
A: Its abundance fitness is -0.67 ± 0.036.

Q: With VYKEIAITNGCINRMSKEELRAKLSEFKLHTRGVKDVLKKRLKNYYKKQK [E30H] as the variant, how does the abundance fitness read?
A: Its abundance fitness is -0.689 ± 0.04.

Q: Which abundance fitness does the source give for VYKEIAITNGCINRMSKEELRAKLSEFKLITRGVKDVLKKRLKNYYKKQK [E30I] here?
A: Its abundance fitness is -0.732 ± 0.046.

Q: With VYKEIAITNGCINRMSKEELRAKLSEFKLYTRGVKDVLKKRLKNYYKKQK [E30Y] as the variant, how does the abundance fitness read?
A: The abundance fitness was -0.387 ± 0.041.

Q: With VYKEIAITNGCINRMSKEELRAKLSEFKLQTRGVKDVLKKRLKNYYKKQK [E30Q] as the variant, how does the abundance fitness read?
A: Its abundance fitness is -0.359 ± 0.051.

Q: Which abundance fitness does the source give for VYKEIAITNGCINRMSKEELRAKLSEFKLVTRGVKDVLKKRLKNYYKKQK [E30V] here?
A: Its abundance fitness is -0.738 ± 0.058.

Q: Which abundance fitness does the source give for VYKEIAITNGCINRMSKEELRAKLSEFKLKTRGVKDVLKKRLKNYYKKQK [E30K] here?
A: The abundance fitness was -0.401 ± 0.069.

Q: Which abundance fitness does the source give for VYKEIAITNGCINRMSKEELRAKLSEFKLSTRGVKDVLKKRLKNYYKKQK [E30S] here?
A: Its abundance fitness is -0.148 ± 0.033.

Q: With VYKEIAITNGCINRMSKEELRAKLSEFKLWTRGVKDVLKKRLKNYYKKQK [E30W] as the variant, how does the abundance fitness read?
A: The abundance fitness was -0.516 ± 0.054.

Q: Which abundance fitness does the source give for VYKEIAITNGCINRMSKEELRAKLSEFKLNTRGVKDVLKKRLKNYYKKQK [E30N] here?
A: Its abundance fitness is -0.16 ± 0.042.

Q: With VYKEIAITNGCINRMSKEELRAKLSEFKLGTRGVKDVLKKRLKNYYKKQK [E30G] as the variant, how does the abundance fitness read?
A: The abundance fitness was -0.562 ± 0.047.

Q: For VYKEIAITNGCINRMSKEELRAKLSEFKLETRGMKDVLKKRLKNYYKKQK [V34M], which abundance fitness is on record?
A: The abundance fitness was -0.582 ± 0.075.
